# B1: anti-ID conjugated beads: FMC63-derived scFv-specific anti-idiotype antibody (B-1 in Examples 10-14) covalently coupled to tosyl-activated magnetic beads (conjugate)
# heavy: EVQLQQSGPELVKPGASVKMSCKASGYTFTDYYMKWVKQCHGKSLEWIGDINPNNGGTDYNQNFKGKATLTVDKSSSTAYMQLNSLTSEDSAVYYCAREGNNYGSRDAMDYWGQGTSVTVSSAKTTAPSVYPLAPVCGDTTGSSVTLGCLVKGYFPEPVTLTWNSGSLSSGVHTFPAVLQSDLYTLSSSVTVTSSTWPSQSITCNVAHPASSTKVDKKIEPRGPTIKPCPPCKCPAPNLLGGPSVFIFPPKIKDVLMISLSPIVTCVVVDVSEDDPDVQISWFVNNVEVHTAQTQTHREDYNSTLRVVSALPIQHQDWMSGKEFKCKVNNKDLPAPIERTISKPKGSVRAPQVYVLPPPEEEMTKKQVTLTCMVTDFMPEDIYVEWTNNGKTELNYKNTEPVLDSDGSYFMYSKLRVEKKNWVERNSYSCSVVHEGLHNHHTTKSFSRTPGK
# light: QIVLTQSPALMSASPGEKVTMTCSASSGVIYMYWYQQKPRSSPKPWIYLTSNLASGVPARFSGSGSGTSYSLTISSMEAEDAATYYCQQWSSNPLTFGAGTKLELKRADAAPTVSIFPPSSEQLTSGGASVVCFLNNFYPKDINVKWKIDGSERQNGVLNSWTDQDSKDSTYSMSSTLTLTKDEYERHNSYTCEATHKTSTSPIVKSFNRNEC
# Columns and labels:
# Type in all cases: cell-based, human
# [1] = system: T cells transduced with anti-CD19 CAR having an scFv derived from FMC63; assay: Stimulation of T cells cultured with anti-idiotype antibody-conjugated beads up to 14 days
# Protocol: The FMC63-derived scFv-specific anti-ID B-1-conjugated beads were incubated with T cells. CD3-purified T cells were isolated by immunoaffinity-based enrichment from leukapheresis samples from healthy donors. Isolated cells were transduced with a viral vector encoding an anti-CD19 CAR having an scFv derived from FMC63. The viral vector construct further encoded a truncated EGFR (EGFRt), which served as a surrogate marker for CAR expression; the EGFRt-coding region was separated from the CAR sequence by a T2A skip sequence. After transductions, cells were expanded in culture and frozen by cryopreservation.
# For T cells stimulation studies, thawed CD4+ or CD8+ CAR-expressing cells were separately seeded at approximately 50,000 total cells per well. In some cases, the culture media was additionally supplemented with cytokines as follows: for CD4+ cells, approximately 1200 IU/mL recombinant IL-7, 20 IU/mL recombinant IL-15 and 100 IU/mL recombinant IL-2; for CD8+ cells, approximately 200 IU/mL recombinant IL-2 and 20 IU/mL recombinant IL-15. Anti-ID B-1 conjugated beads were added to cells at a 1:1 or 1:5 cell:bead ratio and incubated up to 14 days with a 50% media exchange every 2-3 days. As a positive control, cells were cultured with anti-CD3/anti-CD28 magnetic beads at a 3:1 cell:bead ratio in the presence or absence of the indicated cytokines.
# At various times of culture, CD4+ or CD8+ transduced cells (as detected by anti-EGFR for expression of the surrogate marker) were assessed for expansion, PD-1 expression and viability.
# [2] = system: T cells transduced with anti-CD19 CAR having an scFv derived from FMC63; assay: Cytokine levels and phenotype at thaw versus after 9 days with anti-ID B-1 conjugated beads; conditions: 9 days with beads versus immediately after thaw
# From the text: CD3-purified T cells were isolated from peripheral blood mononuclear cells (PBMCs) of two donor patients, transduced with a viral vector encoding an anti-CD19 CAR having an scFv derived from FMC63 and expanded in culture with anti-CD3 and anti-CD28 antibody coated beads. After expansion, the expanded T cells were frozen by cryopreservation. For the studies, frozen T cells were thawed and CD4+ and CD8+ T cells assessed for intracellular cytokine levels or surface phenotype (d=0) or thawed CD4+, CD8+, or CD4+/CD8+ co-culture T cells were cultured for an additional 9 days in the presence of anti-ID B-1 conjugated beads prior to assessing intracellular cytokine levels and surface marker phenotype following stimulation by PMA/ionomycin or CD19 transduced K562 cells (d=9).
# For assessment of intracellular cytokine levels, Golgi inhibitor was added for 4 hours and then TNFα, IFNγ, and IL-2 was assessed by flow cytometry. For all conditions, the extent of intracellular cytokine expression was substantially greater when cells were stimulated in with PMA/ionomycin as compared to CAR-specific stimulation with CD19 transduced K562 cells. […] Similar results were obtained in cells from the two donors.
# Surface expression of the activation marker CD25, surface expression of inhibitory receptors PD-1 and LAG-3, and nuclear expression of the proliferation marker Ki-67 were also assessed in CD4+ or CD8+ cells immediately after thaw (d=0) or in CD4+ or CD8+ T cells expanded alone or as a CD4/CD8 co-culture for an additional 9 days in the presence of the anti-ID conjugated beads (d=9).
# anti-CD19 CAR+ T cells = assay: Chronic stimulation assay, 14 days with anti-ID conjugated beads, then K562-CD19 challenge; conditions: 14 days CAR-specific stimulation versus none; E:T 1:1
# From the text: Separate compositions of CD4+ and CD8+ cells were isolated from human donors, activated and transduced with a viral vector encoding an anti-CD19 CAR having an scFv derived from FMC63. CD4+ and CD8+ T cells from each donor were then separately harvested, formulated, and cryofrozen. The cryofrozen engineered CD4+ and CD8+ T cells were thawed and formulated at a 1:1 ratio of CD4+ and CD8+ T cells from the same donor to generate a T cell composition containing CAR+ T cells. Anti-ID conjugated beads against the anti-CD19 CAR were incubated with cells at a 1:1 bead:cell ratio for 14 days.
# […] The primary response of T cells from the T cell composition that had not been incubated with the anti-ID conjugated beads also was determined by similar stimulation with antigen-expressing cells (Day 0; “primary”). […] Killing activity was assessed by measuring the loss of viable target cells over 72 hours, as determined by loss of fluorescent signal over time by kinetic fluorescence microscopy (using the INCUCYTE® Live Cell Analysis System, Essen Bioscience). Killing index was determined as the inverse of the area under the curve (AUC) for target fluorescence over time. Intracellular cytokine levels of IL-2 and TNF-alpha also was assessed by flow cytometry in co-cultured T cells after incubation in the presence of Golgi inhibitor. […]
molecule,measurement,setting,value
B1,extent of expansion of CD4+ and CD8+ T cells,"[1]; 1:1 or 1:5 cell:bead, versus control anti-CD3/anti-CD28 magnetic beads",The extent of expansion was greater
same,percent viability of CD4+ and CD8+ T cells,[1]; cultured in the presence of cytokines,remained consistently high
same,surface expression of PD-1 on the CD4+ cell subset,"[1]; days 3, 7, 10 and 14",substantially lower or undetectable
same,expression of CD25 and Ki-67,[2],"reduced expression of CD25, but not Ki-67"
same,expression of PD-1 and LAG-3,[2],decreased expression of PD-1 and LAG-3
same,levels of IFNγ,[2],Increased levels of IFNγ
same,Intracellular cytokine levels of IL-2 and TNF-alpha,anti-CD19 CAR+ T cells,also were reduced
